Laboratory results published in patent US20180155432A1 (INSTITUT NATIONAL DE LA RECHERCHE SCIENTIFIQUE, published 2018).

Biological target: T1, recombinant human galectin-1 (human, UniProt P09382 2-135)
T1 construct: Used as the galectin selectivity control; also called hGal-1; Gal-1
Assay: solid phase fluorescent binding assay; galectin coated at 10 µg/ml, streptavidin R-phycoerythrin detection
Procedure: Recombinant hGal-7 or hGal-1 (10 μg/mL) was coated overnight at 4° C. on black, flat bottom, 96-well polystyrene microplates (Ultident®, Montreal, QC, Canada). Thereafter, the plate was blocked with Reagent diluent (PBS-BSA 1%) for 1h, then incubated with unlabeled hGal-7₍₁₂₉₋₁₃₅₎ (cold) for 60 min and finally incubated with biotin-labeled [Ah⁰]hGal-7₍₁₂₉₋₁₃₅₎ for 2h. Lastly, Streptavidin R-phycoerythrin (1/500, Jackson Immunoresearch®, West Grove, Pa., USA) was applied to samples for 30 min. All incubations were performed at room temperature and the washes between incubations were done with 20 mM potassium phosphate buffer pH 7.1. The plate was read by a Tecan® Infinite M1000 PRO microplate reader at excitation and emission wavelengths of 488 nm and 670 nm, respectively.

T1 sequence (P09382 2-135 limits assumed): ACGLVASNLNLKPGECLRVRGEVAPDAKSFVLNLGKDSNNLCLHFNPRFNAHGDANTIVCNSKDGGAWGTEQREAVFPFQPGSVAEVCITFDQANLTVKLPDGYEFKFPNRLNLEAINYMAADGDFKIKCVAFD

B1: biotin-labeled [Ahx0]hGal-7(129-135) (peptide)
peptide: LDSVRIF
HELM: PEPTIDE1{[O=C1N[C@H]2[C@H](CS[C@H]2CCCCC(=O)[*:2])N1].[O=C(CCCCCN[*:1])[*:2]].L.D.S.V.R.I.F.[am]}$$$$V2.0
SMILES: CC[C@H](C)[C@H](NC(=O)[C@H](CCCNC(=N)N)NC(=O)[C@@H](NC(=O)[C@H](CO)NC(=O)[C@H](CC(=O)O)NC(=O)[C@H](CC(C)C)NC(=O)CCCCCNC(=O)CCCC[C@@H]1SC[C@@H]2NC(=O)N[C@@H]21)C(C)C)C(=O)N[C@@H](Cc1ccccc1)C(N)=O
- binding result: no binding
